Source: publication PMC5362033, “The Vitamin B12-Dependent Photoreceptor AerR Relieves Photosystem Gene Repression by Extending the Interaction of CrtJ with Photosystem Promoters” (mBio, 2017)

B1: CrtJ (natural protein, Rhodobacter capsulatus, UniProt P26167 1-469, looked up)
chain: MTSDGSFLMRREALQRVSPDLLADIVTSACDIALVVSPGRVVESVMVNPQFGSAERFAAWQGARLSQLFSPESAQKLENRLADGPEPGRSLQLELTHAADAFTLPVRYTITRSGEDGTLLLIGRDMQPLAEVQQQLVKAQLALERDYEAQREIETRYRVLLEAHPAPLLIVSMSTGRIADLNLAAAAMIGATRAELIDAPVGQELDGRRRGEFLENLAKIAGSDPLGAVELTIRRSRRKVTVTATLFRAAGDRLLLCRLGEAEARRTRVDDTVELSERLFLKGIDAMVFLDADGTIRAANDAFLYLTDAGSAALVQGRSFADFLSRGAVDLNVLLDNVKRIGHLRHYVTRLNTDFSGQVTVELSATLFHDRATPTIALVIRDSNLADATRIMPGMASNEGLRNVMQMVGYATLRDIVSETTEIIEKMCIETALELTGNNRVAAAELLSLSRQSLYVKLRKFGLLSKDAE
notes: CrtJ, aerobic repressor of photosystem genes, Rhodobacter capsulatus (strain SB1003 is the wild-type parent); calculated molecular mass of the dimer 101.0 kDa; also called CrtJ2; CrtJ dimer; source: E. coli BL21(DE3) bearing pSUMO-CrtJ, overexpressed as SUMO-tagged protein, purified according to previous studies

Experiments:
[1] = tested on: CrtJ;AerR (Rhodobacter capsulatus;Rhodobacter capsulatus); assay: EMSA; details: EMSA with 10 nM bchC DNA, oxidizing (O2) or reducing (10 mM DTT), Hill fit; buffer, salt, pH and temperature not in the material (reported previously, ref. 20)
[2] = target: the molecule itself; assay: SEC-MALS; size exclusion chromatography coupled with multiangle light scattering (Wyatt), analysed with ASTRA 6, BSA for calibration; CrtJ alone and CrtJ with added AerR
CrtJ = target: B1; assay: as above; details: both partners purified

## bchC promoter EMSA probe, 325 bp
[1]
  binding signal (fold higher affinity than CrtJ alone): 6

## B1
[2]
  stoichiometry N: 2

B2: AerR (natural protein)
chain: MNGVAELQTVLVNRMVELATGPELGAMDLLFDEFRAAHVPVEEMATHYIPEAARQIGAAWDSDRIGFAQVTIAISRLQELLHALQTLVTADSVGCANGATVLLIVPPGEQHTLGALIVAMELRRRGVSVRIVFAPGLSDLSRLMATTRFDAALITVGSMDRVEICAKLVKTLSSLTKGRMRVAIGGAIVSQRAEALARTGADLVTNDLSLVISEFSLV
CrtJ
  stoichiometry N: 0.5 AerR per CrtJ chain (1:2)
